By EC50 is commonly meant the concentration giving half of the maximal effect.

EC50 data for two molecules are collected here from US20170240619A1 (GARVAN INSTITUTE OF MEDICAL RESEARCH, published 2017).

This experiment addresses T1, HER2 on SK-BR-3 human breast cancer cells (human, UniProt P04626 23-1255).
T1 construct: whole, on cells; also called SK-BR-3 cells; whole cell (SK-BR-3)
In words: flow cytometry on SK-BR-3 cells, human IgG1, anti-human IgG-FITC detection. As for the experimental part:
Following washes in PBS containing 1% BSA, secondary antibody anti-human IgG-FITC (Sigma) was added for 30 min on ice. Fluorescence intensity of the live cell population was recorded using FACSCalibur (BD Biosciences) and analyzed using FlowJo 7.6.5 software (Tree Star).

B1: 4D5 as human IgG1, VH 30D (30D/WT) (antibody, V domains shown)
VH: QVQLVESGGGLVQPGGSLRLSCAASGFNIDDTYIHWVRQAPGKGLEWVARIYPTNGYTRYADSVKGRFTISADTSKNTAYLQMNSLRAEDTAVYYCSRWGGDGFYAMDVWGQGTLVTVSS
VL: not shown
On to B1, for which the EC50 was found to be 0.827 mg/L.

B2: 4D5 as human IgG1, VH 30D and VL 52D (30D/52D) (antibody, V domains shown)
VH: QVQLVESGGGLVQPGGSLRLSCAASGFNIDDTYIHWVRQAPGKGLEWVARIYPTNGYTRYADSVKGRFTISADTSKNTAYLQMNSLRAEDTAVYYCSRWGGDGFYAMDVWGQGTLVTVSS
VL: QIQMTQSPSSLSASVGDRVTITCRASQDVNTAVAWYQQKPGKAPKLLIYSADFLESGVPSRFSGSRSGTDFTLTISSLQPEDFATYYCQQHYTTPPTFGQGTKVEIK
For the molecule B2, a half-maximal effect (EC50) was put at 0.978 mg/L.
